Test results taken from article PMC10104517.

B1: ssRNA (ssRNA)
RNA: GCUUUGAUUUCGUGCAUCUAUGGAG
B2: dsDNA (dsDNA)
DNA 1: TTGACGAGGAAGTGTCTGTT
DNA 2: AACAGACACTTCCTCGTCAA
B3: dsRNA (dsRNA)
RNA 1: GCUUUGAUUUCGUGCAUCUAUGGAG
RNA 2: CUCCAUAGAUGCACGAAAUCAAAGC
B4: High-GC ssRNA (ssRNA)
RNA: GCUUUGCAGCCGCGGCUCGGUUUAG
B5: ssDNA (ssDNA)
DNA: TTGACGAGGAAGTGTCTGTT

Legend:
pI73R [1] = biological target: T1, pI73R (African swine fever virus (ASFV-GZ, …, UniProt A0A2X0RU36 1-72)); assay: BLI
pI73R [2] = biological target: T1, pI73R; assay: EMSA

Row | Binder | Kd (pI73R [1]) | binding result (pI73R [2])
1 | B1 | 37.5 nM | –
2 | B2 | 100 nM | –
3 | B3 | 70 nM | –
4 | B4 | – | binds
5 | B5 | 113 nM | –
